In data set [1] the target is T1, [^3H]NECA-bound A2AR (Homo sapiens, UniProt P29274).
T1 construct: The library of Ala/Leu scan mutants in the receptor A2aR-(2–316) was expressed from plasmid pRG/III-hs-MBP in E. coli strain DH5α; made in house; host or cells: Escherichia coli DH5α
Details: method as in PMID 18664584. The settings on record: solubilised in DM; cited from earlier work.

The test system of data set [2] is [^3H]ZM241385-bound A2AR. The experiment in a line: Thermostability assay of detergent-solubilised receptor with [3H]ZM241385 bound. Format: physicochemical, human. As for the experimental part:
(§1) An aliquot of E. coli cells (14 mL) was thawed on ice and resupended in 500 μL of buffer A [50 mM Tris–HCl (pH 7.4), 0.4 M NaCl, 250 μg/mL lysozyme (Sigma) and 1 mg/mL DNase I (Sigma), supplemented with complete ethylenediaminetetraacetic acid (EDTA)-free Protease inhibitor cocktail (Roche)] and incubated for 1 h at 4 °C. Samples were then sonicated for 1 min at 4 °C using a cup-horn sonicator. The receptors were solubilised by adding 1% DDM and incubated for 1 h at 4 °C. Insoluble material was removed by centrifugation (5 min, 13,000g, 4 °C). The solubilised receptors were partially purified with Ni-NTA agarose (Qiagen). Agarose beads (300 μL) pre-equilibrated in buffer A were added to 700 μL of solubilised receptor. […].
(§2) The sample was incubated for 45 min at 4 °C, then 30 min at the specified temperature and then 30 min at 4 °C. Receptor-bound and free radioligands were separated as previously described on mini gel-filtration columns.[26] Receptor-bound ligands were transferred to a 96-well plate (PerkinElmer) and mixed with 200 μL of Optiphase supermix (PerkinElmer). The bound ^3H-labeled ligand was determined using a 1450 Microbeta Trilux counter (1 min per sample).

The target of data set [3] is T2, [^3H]ZM241385-bound A2AR (Homo sapiens, UniProt P29274).
T2 construct: The library of Ala/Leu scan mutants in the receptor A2aR-(2–316) was expressed from plasmid pRG/III-hs-MBP in E. coli strain DH5α; made in house; host or cells: Escherichia coli DH5α
T2 sequence (P29274 2-316): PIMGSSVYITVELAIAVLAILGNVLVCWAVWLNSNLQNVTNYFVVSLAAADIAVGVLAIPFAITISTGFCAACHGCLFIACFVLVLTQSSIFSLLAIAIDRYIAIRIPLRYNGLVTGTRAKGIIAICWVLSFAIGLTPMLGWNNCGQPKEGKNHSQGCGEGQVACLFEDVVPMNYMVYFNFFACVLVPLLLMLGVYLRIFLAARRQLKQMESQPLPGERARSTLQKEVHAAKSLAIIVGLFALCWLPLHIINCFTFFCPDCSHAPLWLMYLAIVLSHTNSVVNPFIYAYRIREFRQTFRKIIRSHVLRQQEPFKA
The data set is described as above. The data set is classed as physicochemical. The settings on record: identical conditions; DDM. Here is the method:
as §1, §2

Data set [4] relates to [^3H]NECA-bound A2AR. The data set can be described thus: Thermostability assay of detergent-solubilised receptor with [3H]NECA bound (ligand plus format). Format: physicochemical, human. The settings on record: for Improvement in stability compared to WT based on t1/2 (decrease in rate of unfolding): from Fig. 2c. Here is the method:
as §1, with “[…]. After solubilisation in DDM, A2AR was bound to Ni^2+-NTA resin, washed to reduce the DDM concentration and then eluted (see Methods). […]. An” for “An”
as §2
(§3) For all the thermostabilisation studies carried out in our laboratory, the apparent Tm is the temperature for which 50% of the solubilised receptor remains folded after 30 min of incubation. The rate constant of the protein denaturation is a function of the temperature, and consequently, thermal denaturation of a protein can be compared to a chemical reaction for which the rate of the reaction is dependant on the temperature. Arrhenius established that any chemical reaction is temperature dependant. […]. The reference measurement representing the total binding activity of the sample A0 was considered to be measured at 4 °C. From the graphical representation t = Log10(t1/2) (Fig. 2c), we could extract a half-life for each construct at any temperature to define the improvement in stability of the various mutants compared to WT A2AR.

In data set [5] the target is A2AR-GL26 (L48A-Q89A-T65A-A54L) (Homo sapiens, UniProt P29274, A54L/L48A/Q89A/T65A).
Sequence of A2AR-GL26 (L48A-Q89A-T65A-A54L) (P29274 whole entry L48A/A54L/T65A/Q89A): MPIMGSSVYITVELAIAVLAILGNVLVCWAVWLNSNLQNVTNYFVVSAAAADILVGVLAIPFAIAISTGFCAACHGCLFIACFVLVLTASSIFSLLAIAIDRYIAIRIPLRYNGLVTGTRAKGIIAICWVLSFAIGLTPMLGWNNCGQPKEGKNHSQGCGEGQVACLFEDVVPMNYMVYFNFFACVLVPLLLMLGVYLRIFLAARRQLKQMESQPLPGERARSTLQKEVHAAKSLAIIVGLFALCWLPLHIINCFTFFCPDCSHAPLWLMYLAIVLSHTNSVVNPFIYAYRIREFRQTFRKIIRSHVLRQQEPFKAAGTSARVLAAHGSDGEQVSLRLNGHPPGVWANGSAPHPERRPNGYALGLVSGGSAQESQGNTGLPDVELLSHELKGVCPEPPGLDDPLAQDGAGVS
The target in data set [6] is T3, [^3H]NECA-bound A2AR (Homo sapiens, UniProt P29274, L48A/Q89A/T65A).
T3 construct: The library of Ala/Leu scan mutants in the receptor A2aR-(2–316) was expressed from plasmid pRG/III-hs-MBP in E. coli strain DH5α; made in house; host or cells: Escherichia coli DH5α
The data set can be described thus: Thermostability assay of detergent-solubilised receptor with [3H]NECA bound (ligand plus format). The data set is classed as physicochemical. The settings on record: [3H]NECA bound. As for the experimental part: as §1, with “[…]. After solubilisation in DDM, A2AR was bound to Ni^2+-NTA resin, washed to reduce the DDM concentration and then eluted (see Methods). […]. An” for “An”
as §2, §3

Several values for one entry are separate records, joined by “and”; a condition that tells them apart may be missing. Identical values can stand only once. Like-named read-outs stand apart in the source and are kept apart here. Marks after values point to notes of the source that are not given here.

T1 sequence (P29274 2-316): as the sequence (P29274 2-316) above

As to “WT A2AR: wild-type human adenosine A2A receptor [reference compound]”, in data set [1], the “Apparent Tm in DM” value is 23 °C. Further, the “Apparent Tm, Antagonist [^3H]ZM241385” value came to 32.0 ± 0.1 °C in data set [2] ([3H]ZM241385 bound, DDM, 30 min heating, single thermostability curve) and 32 °C in data set [2] ([3H]ZM241385 bound, DDM, 30 min heating, single thermostability curve, listed as WT). Besides, the “Stability of [3H]ZM241385-bound versus [3H]NECA-bound A2AR” value in data set [3] worked out at 3.5 °C. Also, the “Apparent Tm in DDM, Final values” in data set [4] ([3H]NECA bound, 0.025% DDM, replicate experiments) is 28.6 ± 0.2 °C and 28.6 ± 0.2 (n = 8) °C. For the same molecule, in data set [4] ([3H]NECA bound, DDM, 30 min heating, single thermostability curve, estimated error ± 0.5 °C), the “Apparent Tm, Agonist [^3H]NECA” value was 28.5 °C.
Turning to `Nc1nc2ccc(Cl)cc2c2nc(-c3ccco3)nn12` [CGS15943], the “Reduction of binding affinity versus WT A2AR” value in data set [5] is 320 fold.

B1: GL0: A2AR point mutant L48A, renamed GL0 (protein, UniProt P29274 1-412, looked up, variant L48A)
Adenosine receptor A2a: MPIMGSSVYITVELAIAVLAILGNVLVCWAVWLNSNLQNVTNYFVVSAAAADIAVGVLAIPFAITISTGFCAACHGCLFIACFVLVLTQSSIFSLLAIAIDRYIAIRIPLRYNGLVTGTRAKGIIAICWVLSFAIGLTPMLGWNNCGQPKEGKNHSQGCGEGQVACLFEDVVPMNYMVYFNFFACVLVPLLLMLGVYLRIFLAARRQLKQMESQPLPGERARSTLQKEVHAAKSLAIIVGLFALCWLPLHIINCFTFFCPDCSHAPLWLMYLAIVLSHTNSVVNPFIYAYRIREFRQTFRKIIRSHVLRQQEPFKAAGTSARVLAAHGSDGEQVSLRLNGHPPGVWANGSAPHPERRPNGYALGLVSGGSAQESQGNTGLPDVELLSHELKGVCPEPPGLDDPLAQDGAGVS
Turning to B1, the “Apparent Tm, Antagonist [^3H]ZM241385” value in data set [2] was 0 ^b °C. For the same molecule, the “Binding of [^3H]ZM241385” value in data set [2] (at 4 °C, 100 nM radioligand) is given as “did not bind”. In addition, in data set [4], the “Apparent Tm in DDM, Single measurement” value was found to be 42.5 °C. Further, in data set [4] ([3H]NECA bound, DDM), the “Improvement in stability (apparent Tm) of NECA-bound A2AR versus WT” value was 13.6 °C and the “Improvement in stability compared to WT based on t1/2 (decrease in rate of unfolding)” value is 49 fold.

B2: A236L: A2AR point mutant A236L (protein, UniProt P29274 1-412, looked up, variant A236L)
Adenosine receptor A2a: MPIMGSSVYITVELAIAVLAILGNVLVCWAVWLNSNLQNVTNYFVVSLAAADIAVGVLAIPFAITISTGFCAACHGCLFIACFVLVLTQSSIFSLLAIAIDRYIAIRIPLRYNGLVTGTRAKGIIAICWVLSFAIGLTPMLGWNNCGQPKEGKNHSQGCGEGQVACLFEDVVPMNYMVYFNFFACVLVPLLLMLGVYLRIFLAARRQLKQMESQPLPGERARSTLQKEVHAAKSLLIIVGLFALCWLPLHIINCFTFFCPDCSHAPLWLMYLAIVLSHTNSVVNPFIYAYRIREFRQTFRKIIRSHVLRQQEPFKAAGTSARVLAAHGSDGEQVSLRLNGHPPGVWANGSAPHPERRPNGYALGLVSGGSAQESQGNTGLPDVELLSHELKGVCPEPPGLDDPLAQDGAGVS
With B2, in data set [2], the “Apparent Tm, Antagonist [^3H]ZM241385” value came to 38 °C and the “ΔTm, Antagonist [^3H]ZM241385” value was “+ 6 °C”.

B3: V282A: A2AR point mutant V282A (protein, UniProt P29274 1-412, looked up, variant V282A)
Adenosine receptor A2a: MPIMGSSVYITVELAIAVLAILGNVLVCWAVWLNSNLQNVTNYFVVSLAAADIAVGVLAIPFAITISTGFCAACHGCLFIACFVLVLTQSSIFSLLAIAIDRYIAIRIPLRYNGLVTGTRAKGIIAICWVLSFAIGLTPMLGWNNCGQPKEGKNHSQGCGEGQVACLFEDVVPMNYMVYFNFFACVLVPLLLMLGVYLRIFLAARRQLKQMESQPLPGERARSTLQKEVHAAKSLAIIVGLFALCWLPLHIINCFTFFCPDCSHAPLWLMYLAIVLSHTNSAVNPFIYAYRIREFRQTFRKIIRSHVLRQQEPFKAAGTSARVLAAHGSDGEQVSLRLNGHPPGVWANGSAPHPERRPNGYALGLVSGGSAQESQGNTGLPDVELLSHELKGVCPEPPGLDDPLAQDGAGVS
As for B3, in data set [2], the “Apparent Tm, Antagonist [^3H]ZM241385” value turned out to be 33 °C and the “ΔTm, Antagonist [^3H]ZM241385” value was “+ 1 °C”.

B4: GL23: A2AR mutant L48A-Q89A-T65A (protein, UniProt P29274 1-412, looked up, variant L48A Q89A T65A)
Adenosine receptor A2a: MPIMGSSVYITVELAIAVLAILGNVLVCWAVWLNSNLQNVTNYFVVSAAAADIAVGVLAIPFAIAISTGFCAACHGCLFIACFVLVLTASSIFSLLAIAIDRYIAIRIPLRYNGLVTGTRAKGIIAICWVLSFAIGLTPMLGWNNCGQPKEGKNHSQGCGEGQVACLFEDVVPMNYMVYFNFFACVLVPLLLMLGVYLRIFLAARRQLKQMESQPLPGERARSTLQKEVHAAKSLAIIVGLFALCWLPLHIINCFTFFCPDCSHAPLWLMYLAIVLSHTNSVVNPFIYAYRIREFRQTFRKIIRSHVLRQQEPFKAAGTSARVLAAHGSDGEQVSLRLNGHPPGVWANGSAPHPERRPNGYALGLVSGGSAQESQGNTGLPDVELLSHELKGVCPEPPGLDDPLAQDGAGVS
For B4, in data set [6], the “Decrease in stability in DM compared with DDM” value was 7.7 °C. Also, in data set [4], the “Apparent Tm in DDM, Single measurement” value was found to be 50 °C. Further, the “Improvement in stability compared to WT based on t1/2 (decrease in rate of unfolding)” value in data set [4] ([3H]NECA bound, DDM) is recorded as 226 fold; in data set [4] ([3H]NECA bound, DDM, listed as A2AR-GL23), “about 230 fold”.

B5: I238A: A2AR point mutant I238A (protein, UniProt P29274 1-412, looked up, variant I238A)
Adenosine receptor A2a: MPIMGSSVYITVELAIAVLAILGNVLVCWAVWLNSNLQNVTNYFVVSLAAADIAVGVLAIPFAITISTGFCAACHGCLFIACFVLVLTQSSIFSLLAIAIDRYIAIRIPLRYNGLVTGTRAKGIIAICWVLSFAIGLTPMLGWNNCGQPKEGKNHSQGCGEGQVACLFEDVVPMNYMVYFNFFACVLVPLLLMLGVYLRIFLAARRQLKQMESQPLPGERARSTLQKEVHAAKSLAIAVGLFALCWLPLHIINCFTFFCPDCSHAPLWLMYLAIVLSHTNSVVNPFIYAYRIREFRQTFRKIIRSHVLRQQEPFKAAGTSARVLAAHGSDGEQVSLRLNGHPPGVWANGSAPHPERRPNGYALGLVSGGSAQESQGNTGLPDVELLSHELKGVCPEPPGLDDPLAQDGAGVS
Turning to B5, in data set [2], the “Apparent Tm, Antagonist [^3H]ZM241385” value turned out to be 36 °C and the “ΔTm, Antagonist [^3H]ZM241385” value is “+ 4 °C”.

B6: A50L: A2AR point mutant A50L (protein, UniProt P29274 1-412, looked up, variant A50L)
Adenosine receptor A2a: MPIMGSSVYITVELAIAVLAILGNVLVCWAVWLNSNLQNVTNYFVVSLALADIAVGVLAIPFAITISTGFCAACHGCLFIACFVLVLTQSSIFSLLAIAIDRYIAIRIPLRYNGLVTGTRAKGIIAICWVLSFAIGLTPMLGWNNCGQPKEGKNHSQGCGEGQVACLFEDVVPMNYMVYFNFFACVLVPLLLMLGVYLRIFLAARRQLKQMESQPLPGERARSTLQKEVHAAKSLAIIVGLFALCWLPLHIINCFTFFCPDCSHAPLWLMYLAIVLSHTNSVVNPFIYAYRIREFRQTFRKIIRSHVLRQQEPFKAAGTSARVLAAHGSDGEQVSLRLNGHPPGVWANGSAPHPERRPNGYALGLVSGGSAQESQGNTGLPDVELLSHELKGVCPEPPGLDDPLAQDGAGVS
Turning to B6, in data set [2], the “Apparent Tm, Antagonist [^3H]ZM241385” value worked out at 38.5 °C and the “ΔTm, Antagonist [^3H]ZM241385” value was “+ 6.5 °C”.

B7: S47A: A2AR point mutant S47A (protein, UniProt P29274 1-412, looked up, variant S47A)
Adenosine receptor A2a: MPIMGSSVYITVELAIAVLAILGNVLVCWAVWLNSNLQNVTNYFVVALAAADIAVGVLAIPFAITISTGFCAACHGCLFIACFVLVLTQSSIFSLLAIAIDRYIAIRIPLRYNGLVTGTRAKGIIAICWVLSFAIGLTPMLGWNNCGQPKEGKNHSQGCGEGQVACLFEDVVPMNYMVYFNFFACVLVPLLLMLGVYLRIFLAARRQLKQMESQPLPGERARSTLQKEVHAAKSLAIIVGLFALCWLPLHIINCFTFFCPDCSHAPLWLMYLAIVLSHTNSVVNPFIYAYRIREFRQTFRKIIRSHVLRQQEPFKAAGTSARVLAAHGSDGEQVSLRLNGHPPGVWANGSAPHPERRPNGYALGLVSGGSAQESQGNTGLPDVELLSHELKGVCPEPPGLDDPLAQDGAGVS
Regarding B7, in data set [2], the “Apparent Tm, Antagonist [^3H]ZM241385” value was 25.5 °C and the “ΔTm, Antagonist [^3H]ZM241385” value was “− 6.5 °C”.

The values are drawn from PMC3145977, “Thermostabilisation of an Agonist-Bound Conformation of the Human Adenosine A2A Receptor” (Journal of Molecular Biology, 2011).
